± gives the uncertainty stated by the source.

The series is described as follows: amyloid nucleation score (Sup35N fusion, yeast selection) (log enrichment); library NNK1; higher = more nucleation; inactive = no reads after selection. In short, it runs like this: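 Nucleation score is defined as the DiMSum log enrichment of output over input reads, with centring on the mode score of non-aggregating sequences. A minimum of 100 input reads was required for each sequence. Reads came from Illumina sequencing of plasmid inserts from psi-negative yeast expressing Sup35N fused to peptides of 20 random codons, induced with 100 μM copper sulfate for 24 hours and grown 7 days at 30°C on medium lacking adenine and uracil.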
Consider SGHACTGR, for which the amyloid nucleation score was 0.616 ± 0.4. For FICGDLNCQQTSSFCFLDYS, the amyloid nucleation score came to 7.296 ± 0.051. RNLLVEFSLVSKWGLSSSWR: the amyloid nucleation score came to 0.557 ± 0.51. Regarding DVKFVVFSNRAWVCTSASKW, the amyloid nucleation score amounted to 4.01 ± 0.11.

The substance TLLNDIFLLCCDSTSNDLMC displayed an amyloid nucleation score of 1.56 ± 0.43. For VLCVSRRSAIYTWGSSLYCD the value was -0.691 ± 1.4; for SGCWT, 0.331 ± 0.8.

The substance GIRKKVPIVVCNIFQFECKR returned an amyloid nucleation score of 2.51 ± 0.1. GSMLCGEVERMSECKESGGP: the amyloid nucleation score was -0.354 ± 0.48. The same measure for ECVTCSWF: 0.011 ± 0.38; for GNLSPSLCGHILLVTLIKGW: 0.291 ± 0.39. For CPIWPVCWEVNHVPYLTKDI, the amyloid nucleation score came to 0.58 ± 0.79. As to YGYAAYVDMRSGL, the amyloid nucleation score was -0.257 ± 0.33. For PYFINST the value was 1.75 ± 0.53; for QMVQYSRKSITFLGRPVLFS, 0.291 ± 0.55; for RYKIQPAIPVQEGLMGLSDP, 0.282 ± 0.43. TRMCLRAKSMWVVDSN returned an amyloid nucleation score of 0.068 ± 0.48. The substance TWSSKIEDSSAYYDG returned an amyloid nucleation score of 1.65 ± 0.36. Take KRNLRVHSTGIFRYRIWKA: the amyloid nucleation score was -0.047 ± 0.48. In the case of RLFNTAQGSHSWH, the amyloid nucleation score worked out at 1.56 ± 0.71.

For KGVHGYCRRIM, the amyloid nucleation score entry is “inactive”. For the substance FMPTKGGQSIIGLHPLLFML, the amyloid nucleation score was -0.577 ± 0.58. VWEQLIAE registered an amyloid nucleation score of -0.26 ± 0.84. For the substance LRVCNLFCL, the amyloid nucleation score was 7.912 ± 0.046. In turn, WVSFCNFDGKKFGAVRAHYY gave an amyloid nucleation score of -2 ± 0.97. Consider YVLTCFAELGGRRGVS, for which the amyloid nucleation score is -0.531 ± 1.4. HPLAAVSKLCRRSRLGLSSR registered an amyloid nucleation score of -0.124 ± 0.35. The same measure for VMFRLTGELGDMKCGVLSDA: 1.47 ± 0.38; for CNVKCLRVARFDFVYRFFLP: “inactive”; for LVCVFAWLFP: 7.41 ± 0.075. DSVLLRFYDCCEMFYLHSLL came in with an amyloid nucleation score of 0.48 ± 0.67.

EVVQMVFIFFRCSLVDGKEW: the amyloid nucleation score is 0.405 ± 0.72. Turning to SASDVWCLQMLRSVYFPPQG, the amyloid nucleation score result was “inactive”. With RYMVSCRGGGKWQPPLFDMR, the amyloid nucleation score is 1.23 ± 0.66. NFRNSLRSV yielded an amyloid nucleation score of 1.24 ± 0.59. LQQMIRRLVLRFMAATAL registered an amyloid nucleation score of 0.14 ± 0.37. On to QPILPSPIRWFEESMDLVWG, for which the amyloid nucleation score was -0.542 ± 0.4. For VYCCTYVQINVGVERSTEIR the value was 7.044 ± 0.05; for GERTCSYIYGLFTIFYTGLR, -0.048 ± 1.3; for RLVRCMGTVIINQSHSCDRG, 0.607 ± 0.64. For LVILVVFGKRY the value was -0.139 ± 0.41. Turning to FVVQPYHYKSY, the amyloid nucleation score worked out at 0.264 ± 0.34. For the substance RSNFELSLSALKVMLFVGHK, the amyloid nucleation score result was “inactive”. For SCTWYKFWRKSIAMILAILS the value was 0.169 ± 0.9; for PSSKCGCWTTPEMIEGYRNL, -0.119 ± 0.51. With GGRNF, the amyloid nucleation score was -0.696 ± 0.57.

As for YMPPNGKCSKVCLLRGGDYM, the amyloid nucleation score was found to be 0.719 ± 0.37. In the case of GCCSVFQNCCSSRVYIFVPI, the amyloid nucleation score was 4.87 ± 0.082.

As to HHKTFV, the amyloid nucleation score result is “inactive”.

Substance GFNLFCATESYYFFSLMVMG displayed an amyloid nucleation score of -0.13 ± 0.25. QAVSRHNGSSVVTVRFKLSP had an amyloid nucleation score of 1.49 ± 0.52. Regarding LYIAH, the amyloid nucleation score is -0.722 ± 0.42. NKGKIESMCSSAH: the amyloid nucleation score worked out at 4.7 ± 0.099. Take KGHRCNIVTTNTAPRFPW: the amyloid nucleation score is -0.482 ± 0.91. With RGSPFGVSM, the amyloid nucleation score was 5.4 ± 0.091. For VYWRFPRSNGEWYNMLVLKD, the amyloid nucleation score was -0.576 ± 0.53.

With SLIISKEGRYVFYVCLRGWW, the amyloid nucleation score is -0.447 ± 0.42. YLGRVSFIGHFVVTVSGSSQ gave an amyloid nucleation score of 1.1 ± 0.21. The same measure for GNTVRYVKRMYY: -0.056 ± 0.5; for DLYGACEMWCAENSYGRFSV: 0.107 ± 0.95. As to KLFDYAVYLC, the amyloid nucleation score stood at 0.936 ± 0.5. On to TTTKLGPMLLGRNSVYCV, for which the amyloid nucleation score is 2.31 ± 0.25. In the case of VWIDLSMCIYMLEPLNSLFR, the amyloid nucleation score was determined as 1.95 ± 0.19. The substance MFQPFPFIHQVDQPFPKSVQ had an amyloid nucleation score of 0.51 ± 0.47. The same measure for SNFTEVLLSECFLVWLMFTH: 0.089 ± 0.87; for QTDSTVGD: -0.522 ± 1.4. For the substance LSYLLWGETRIRYWVPASLM, the amyloid nucleation score was -0.32 ± 0.61.

Regarding KNFAVRWNPVTSDWFVTLSV, the amyloid nucleation score was -0.429 ± 0.4. For the substance MPCRARVRDNSLSWTEHTNC, the amyloid nucleation score was -0.248 ± 0.62. In turn, YILPFFGRHYNRHGVFAGAM registered an amyloid nucleation score of -0.647 ± 0.9. As to HDLTWVSTSESFFSLMGHAS, the amyloid nucleation score is -0.28 ± 0.29. For the substance KIMCELCNSVRNALWRTLRG, the amyloid nucleation score is -0.01 ± 0.71. For the substance NKQEQHFF, the amyloid nucleation score stood at 0.052 ± 0.4. For TEFERFFKRDGYWGSRSYSR the value was 0.221 ± 0.59.

Regarding VLMCDGFHALRKL, the amyloid nucleation score is 1.97 ± 0.36. Regarding WFWIMIFRHCNVIL, the amyloid nucleation score came to 0.404 ± 0.5. The same measure for CYVVKVLFRPIY: 1.01 ± 0.97. In the case of GNVKSTRWFESV, the amyloid nucleation score came out at 0.72 ± 0.78.

The substance QDKAVIANNRWTKMCGRLDC yielded an amyloid nucleation score of 1 ± 0.59. GGLKQFTGSRTHGLWSNGQM yielded an amyloid nucleation score of -0.337 ± 0.89. In turn, GLDRTHYPFALNGCLLSTVS came in with an amyloid nucleation score of 0.676 ± 0.55. In the case of LFKNFEWMYSTMTHLSWIWL, the amyloid nucleation score is -0.335 ± 0.21. SGWYDP: the amyloid nucleation score was -0.523 ± 0.7. IFVFWTALSTSHNGWGVPVM: the amyloid nucleation score result is “inactive”.

The substance CLTSRQMMQKLMRYIKNDLG gave an amyloid nucleation score of -0.051 ± 0.32. The same measure for FVMHSSSM: -0.34 ± 0.53; for LLVSTVRVNGQI: -0.016 ± 0.42; for CQFYWLTGPCMRRLRCGSVQ: 0.052 ± 0.36. As to SMRFYYA, the amyloid nucleation score amounted to 2.97 ± 0.23. Consider QFWHYGF, for which the amyloid nucleation score is -1.04 ± 2.4. Take SYGYSMLAGVWT: the amyloid nucleation score stood at 0.057 ± 1.1. With YSIFILRSAWMMRRIEMSTA, the amyloid nucleation score is -0.252 ± 0.45. Regarding RNMKPIYFLRPTISVNRSNR, the amyloid nucleation score turned out to be 0.594 ± 0.85.

In turn, MFLCNVIYCFFLTYIWLTFF displayed an amyloid nucleation score of 5.33 ± 0.11. In the case of TRMITWRPFRSSWVFTNLYE, the amyloid nucleation score amounted to 2.04 ± 0.19.

The substance RWGRESRLRV returned an amyloid nucleation score of -0.122 ± 0.29.

Take VSHSGCKSF: the amyloid nucleation score was -0.434 ± 0.47. Take VLSKFIVSDLMAISQNKLHR: the amyloid nucleation score result was “inactive”. On to CGFKLVVVCFMK, for which the amyloid nucleation score stood at 3.47 ± 0.2. For ASRYRKFTLWN the value was -0.466 ± 0.31; for NLMNWRLYDLTGLAAWDQYS, -0.841 ± 0.98; for TARFINVDVLSPW, 1.32 ± 0.28. For the substance FTMSTISCSGSDTIVID, the amyloid nucleation score is -0.503 ± 0.25. The same measure for RNLCTWVNRKELLSSEYLLF: -0.249 ± 0.31. For MGVYTCR the value was “inactive”; for CLVIRFILHLSCK, 0.587 ± 0.54. SQWALKITFYKMVAL showed an amyloid nucleation score of -0.171 ± 1.1.

Substance LREFPFYFTISLRITLFMSL yielded an amyloid nucleation score of -0.391 ± 0.23. SAFFYDSFYRMRLSLFIGYG: the amyloid nucleation score turned out to be 0.63 ± 0.55.

As to PCRGL, the amyloid nucleation score is -0.628 ± 2.1.

Take YEFMWRVNTLWRENLFYSGR: the amyloid nucleation score was found to be 0.156 ± 0.59. MSALARVMLSMRYRIGT had an amyloid nucleation score of -0.395 ± 1.1.

Regarding VLCSRIYDHAWAKG, the amyloid nucleation score result is “inactive”.

Substance FATQTVAACVQCLKTRSDVF returned an amyloid nucleation score of 0.029 ± 1.1. For the substance KAGRGICESYRSFHPRPVFA, the amyloid nucleation score is 0.034 ± 0.4. In turn, FFESEVSDKNFGSC returned an amyloid nucleation score of -1.29 ± 2.4. In turn, DNTWLFVAL had an amyloid nucleation score of 0.918 ± 0.35. For SYWCLRAYLRLWLL the value was -0.164 ± 0.42; for LCAEN, 0.48 ± 0.52; for WCWNAAQLSMVYSDMNFVAV, 0.675 ± 1. GVHSTEKNEWTQTFQSGR: the amyloid nucleation score was -0.103 ± 0.98. For FPWTNLSDD the value was 0.04 ± 0.36; for FRDMYCARNIACSFLLVVAC, 1.1 ± 0.19. On to TFIKNVTNRVHYGNALTHLG, for which the amyloid nucleation score is -0.204 ± 0.66. In the case of IYTVVRAVCMGPGSGWLFRK, the amyloid nucleation score is -1.05 ± 1.2. For the substance VDVSNLKCLQE, the amyloid nucleation score worked out at 0.335 ± 0.42. RYRNVVRSFFNEYRLCPGIE had an amyloid nucleation score of -0.235 ± 1.4. Turning to FLNLAFAVSRLGLCMWYVAF, the amyloid nucleation score is 0.319 ± 0.87. VFMSIRMWAFDLLYVSCGLA yielded an amyloid nucleation score of -0.808 ± 0.42. As for LYRSGSVMSSATHYRGAHLC, the amyloid nucleation score is -0.556 ± 0.77. The substance NNLRLKGKKRSYRCSVIDLT yielded an amyloid nucleation score of -0.256 ± 0.39. The same measure for NNPLLIPAYPTRNQKVKLIK: 0.108 ± 0.39; for LRCTCVECQWKRCESTLGGG: -1.02 ± 2.7; for CNFKIVSWVVNQVLFFSHFA: -1.37 ± 2.1. SRAINVSVMWVRFS yielded an amyloid nucleation score of 2.81 ± 0.13. As to SIFSSWMSWGLII, the amyloid nucleation score was found to be 0.194 ± 0.39. MYGLVLCIYVSHVVR had an amyloid nucleation score of 1.54 ± 0.43.

As to RSWLLIKLTSQHASKMLVTG, the amyloid nucleation score was determined as 0.569 ± 0.46. Regarding SYFRFVLYN, the amyloid nucleation score is 0.052 ± 1.1.

FRKLKTAYDFFHCRCPHSNA gave an amyloid nucleation score of 0.373 ± 0.78. Take QGWSMVWYYSLESEETT: the amyloid nucleation score was -0.377 ± 0.6.

Source of the values: the supplement of paper PMC12042874.
